Laboratory results published in patent US9725518B2, “Antibodies that bind to Jagged 1” (Cancer Research Technology Limited, priority 2013, dated 2017).
Residue numbers refer to the chain shown, from its start.

B1: J1-183D variant 8: humanised/de-immunised J1-183D: J1-183D_VL_2 + J1-183D_VH_4 (antibody, V domains shown)
VH: QVQLVQSGAEVKKPGASVKVSCKASGYTFTDYAIHWVRQAPGQGLEWMGIINTYYGDSKYAQKFQGRVTMTVDTSTSTAYMELSSLRSEDTAVYYCARGYDGFAYWGQGTLVTVSSASTKGP
VL: DIQMTQSPSSLSASVGDRVTITCRTSENIYSYLTWYQQKPGKAPKLLIYNAKTLASGVPSRFSGSGSGTDFTLTISSLQPEDFATYYCQHHYDIPWTFGGGTKLEIKRT
B2: J1-183D variant 9: humanised/de-immunised J1-183D: J1-183D_VL_3 + J1-183D_VH_1 (antibody, V domains shown)
VH: B1 VH with V11L, A24V, T28A, V37I, A61N, Q65K, G66D, T74K
VL: B1 VL with T53I, A55D

Legend:
[1] = system: J1-induced Notch signalling; assay: Luciferase assay, LS174T RBPJ reporter stimulated with J1 protein; type: cell-based, human
Procedure: FIG. 9. […] (A) The colorectal cancer cell line LS174T expressing luciferase under the control of Notch co-factor RBPJ was stimulated with mammalian cell-expressed soluble J1 proteins (NE3-Fc and NE12-Fc) or a control protein in the presence of J1 mAbs (10 μg/ml), and luciferase activity was measured. […] (C) Breast cancer MDA-MB-231 cells were cultured with J1 mAbs. The expression level of the Notch target gene HES1 was measured by qPCR using β2m as the control gene. In all experiments the γ-secretase inhibitor DBZ was used as a positive control for pan Notch inhibition and a control mAb (IgG2b or IgG1) or no treatment (NT) were negative controls.
FIG. 20. Inhibition of human Jagged 1/Notch signalling by humanised and de-immunised J1-mAbs in vitro. The colorectal cancer cell line LS174T expressing luciferase under the control of Notch co-factor RbPJ was stimulated with mammalian cell-expressed recombinant J1 protein (NE3-Fc protein, right bar for each treatment) or a control protein (left bar) in the presence of J1 mAbs (10 μg/ml), and luciferase activity was measured. The parental murine monoclonal antibody (Mo), Murine IgG1, DMSO and DBZ were used as controls.
Having established that the J1 mAbs were able to block the binding of the J1 ligand to its receptor N1 their effect on the activity of the Notch signalling pathway was investigated. The human colorectal cancer cell line LS174T, stably expressing a luciferase reporter gene under control of Notch co-factor RBPJ, was stimulated with two forms of immobilised J1 protein: N-terminus to EGF3 and N-terminus to EGF12. […] Importantly, the best two J1 mAbs (J1-65D and J1-183D) were also tested against other Notch ligands in order to verify ligand specificity.
Prior to experiment, clear bottom 96-well plates (CELLSTAR) wells were coated with either J1-ECD fragments (NE3-Fc and NE12-Fc), other Notch-ligands (J2 or DLL4; both from R&D) or control protein (mlgG2b) at the concentration of 5 μg/ml in 0.1% BSA-PBS (overnight incubation at 4° C.). LS174T colorectal cancer cells, expressing the luciferase gene under control of the Notch cofactor RbPJ, were then plated (4×10^4 cells/well) in the presence of different mAbs (10 μg/ml) or DBZ (100 nM). Luciferase activity was then quantified 24 hours later using the Bright-Glo Luciferase Assay System (Promega).

[2] = system: murine Hes1 (N1 signalling mediated via mJ1); assay: Hes1 qPCR in B16F10 cells stably expressing murine J1; type: cell-based, mouse; details: mAb 10 μg/ml, DBZ 100 nM, 7 days
Procedure: FIG. 10. […] (A) Mouse melanoma B16F10 cells stably expressing murine J1 were cultured with 10 μg/ml of each J1 mAb, or an IgG1 control antibody, for 7 days with fresh mAb supplemented every 2 days. The γ-secretase inhibitor DBZ (100 nM) was used as a control for Notch inhibition. Cells were harvested, total RNA extracted and cDNA was synthesised. Murine Hes1 expression levels were detected by real-time PCR normalised against GAPDH. […] (B) Human breast cancer (MDA-MB-231) and primary endothelial cells (HUVEC) were cultured over plates coated with recombinant rat Jagged1 (rrJag1-Fc) or a control protein (mIgG1) in the presence of 10 μg/ml of J1 mAbs or isotype control Ab. 24 hours later cells were harvested, total RNA extracted and cDNA was synthesised. Expression of the human Notch-target genes HES1 and HEY2 was analysed by real-time PCR and β2-microglobulin was used as control gene. Results from one representative experiment are shown. […]
Total RNA from cell cultures/spheroids was isolated using RNeasy mini kit (Qiagen, UK) according to the manufacturer's instructions. […] Quantitative PCR (qPCR) analysis was performed in triplicate using the SYBR GreenER qPCR SuperMix Universal (Invitrogen) and Chromo4 fluorescence detector (MJ Research, USA). Relative quantification was done using the ΔΔCt method normalizing to β2-microglobulin gene or murine β-Actin expression. […]

[3] = Soluble aggregates of transiently expressed antibodies; type: physicochemical; details: Protein A purified antibody
Text: The protein yield of these antibodies, their levels of soluble aggregates and their binding affinity to the immunogen (J1-DE3) are illustrated in (Table 6).

[4] = molecular target: T1, N1 binding to cell surface expressed hJ1 (Homo sapiens, UniProt P78504); assay: Notch binding blocking assay (FACS): N1 EGF11-13 beads staining human J1-expressing cells; design: key: +: Complete blocking; X: No blocking
T1 construct: cell expressed full length human J1 (hJ1; HEK293 transfectants); expressed in transfected cells; host or cells: HEK293
T1 sequence (P78504 34-1218): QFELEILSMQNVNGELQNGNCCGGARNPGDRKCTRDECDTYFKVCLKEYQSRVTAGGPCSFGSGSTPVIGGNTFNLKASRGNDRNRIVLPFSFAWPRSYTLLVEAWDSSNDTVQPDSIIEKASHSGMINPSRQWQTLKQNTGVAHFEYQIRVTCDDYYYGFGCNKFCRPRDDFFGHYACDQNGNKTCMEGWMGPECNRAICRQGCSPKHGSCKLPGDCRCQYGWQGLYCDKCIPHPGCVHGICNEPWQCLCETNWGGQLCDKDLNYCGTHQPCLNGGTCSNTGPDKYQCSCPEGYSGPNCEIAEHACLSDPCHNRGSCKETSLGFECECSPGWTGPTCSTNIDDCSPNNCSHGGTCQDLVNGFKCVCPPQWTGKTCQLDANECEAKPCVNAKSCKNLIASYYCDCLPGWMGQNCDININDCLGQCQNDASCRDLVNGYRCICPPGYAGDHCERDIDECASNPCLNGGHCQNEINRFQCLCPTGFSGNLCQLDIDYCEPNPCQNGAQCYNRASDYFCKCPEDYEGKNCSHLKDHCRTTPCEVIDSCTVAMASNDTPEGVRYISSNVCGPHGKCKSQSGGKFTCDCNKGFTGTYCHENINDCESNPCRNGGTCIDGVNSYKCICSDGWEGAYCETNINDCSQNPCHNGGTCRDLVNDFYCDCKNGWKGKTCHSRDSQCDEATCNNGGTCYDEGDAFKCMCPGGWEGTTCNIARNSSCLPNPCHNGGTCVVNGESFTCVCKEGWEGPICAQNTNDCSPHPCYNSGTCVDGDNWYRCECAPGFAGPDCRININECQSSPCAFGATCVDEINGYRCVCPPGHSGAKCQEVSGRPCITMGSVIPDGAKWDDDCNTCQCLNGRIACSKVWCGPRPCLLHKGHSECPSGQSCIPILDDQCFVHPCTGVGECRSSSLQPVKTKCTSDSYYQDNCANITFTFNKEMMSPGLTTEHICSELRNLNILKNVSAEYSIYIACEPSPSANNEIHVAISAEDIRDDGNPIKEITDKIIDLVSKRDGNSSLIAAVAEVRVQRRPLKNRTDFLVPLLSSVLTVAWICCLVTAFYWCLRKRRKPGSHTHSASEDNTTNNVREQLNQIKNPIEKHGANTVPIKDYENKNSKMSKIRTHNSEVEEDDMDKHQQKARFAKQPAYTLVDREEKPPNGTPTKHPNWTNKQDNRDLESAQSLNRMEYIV
In short: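 E. coli-expressed, refolded human N1 EGF11-13 (411-526), biotinylated on avidin-coated fluorescent beads, stained human J1-transfected HEK293 cells with hybridoma supernatant or purified antibody diluted in HBSS/10% FCS. Purified mAbs titrated in dilution series; bead binding read by flow cytometry.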

MDA-MB-231 spheroids = assay: Spheroid assay (3-D growth), MDA-MB-231; type: cell-based, human; details: humanised variants 5 μg/ml
Text: Similar findings were also reported for the Merck anti-N1 mAbs when tested on the LS-1034 cell line. As cell-cell contact is required to activate Notch signalling a spheroid-based 3-D growth model was used to test the ability of the J1 mAbs to block tumour growth. Furthermore, the 3-D model better mimics in vivo conditions including hypoxia and acidosis, allowing evaluation of the mAbs effect in a more realistic setting. Spheroids were generated from MDA-MB-231 breast cancer cells and the ability of different concentrations of the J1-65D mAb to inhibit their growth was evaluated.
Cells were harvested and resuspended in 2.5% Matrigel (BD)-complete DMEM medium. Cell suspension was plated on low-adherence 96-well plates (Corning) (200 μl/well) and spheroids, of approximately fixed cell number (5×10^3 cells for MDA-MB-231 and MDA-MB-468 cell lines; 2×10^3 for MCF7 cells) were then generated by spinning plates at 1800 rpm for 10 minutes. The following day, pictures of the spheroids were taken (day 1) and treatments were added (mAbs were used at 10 μg/ml [5 μg/ml for humanised antibodies] while DBZ was used at the concentration of 100 nM). In some experiments Paclitaxel (1 nM) and Doxorubicin (20 nM) were used in combination with J1-65D mAb treatment. Every 2 days pictures were taken and half of the medium was replaced with fresh one containing mAb/drug. At the end of the experiment, spheroids were either lysed for RNA extraction, were processed and paraffin-embedded for immunohistochemical analysis or were dissociated by pipetting and trypsinization into single cell suspensions for FACS analysis. Spheroid size was evaluated by image analysis using ImageJ software.

[5] = humanised/chimeric mAbs 10 μg/ml, NE3-Fc, DBZ control
[6] = final antibody concentration 0.2 μg/ml
[7] = final antibody concentration 0.4 μg/ml
[8] = final antibody concentration 0.6 μg/ml
[9] = final antibody concentration 1.0 μg/ml

Row | Molecule | inhibition of J1-induced luciferase activity ([1]; NE3-Fc and NE12-Fc, mAbs 10 μg/ml, DBZ 100 nM) | inhibition of J1-induced luciferase activity [1, 5] | repression of murine Hes1 expression [2] | % soluble aggregate [3] | Blocking of Notch1 binding to cell surface Jagged 1 [4, 6] | Blocking of Notch1 binding to cell surface Jagged 1 [4, 7] | Blocking of Notch1 binding to cell surface Jagged 1 [4, 8] | Blocking of Notch1 binding to cell surface Jagged 1 [4, 9] | spheroid growth inhibition (MDA-MB-231 spheroids)
1 | C[C@H](NC(=O)Cc1cc(F)cc(F)c1)C(=O)N[C@@H]1C(=O)N(C)c2ccccc2-c2ccccc21 [DBZ, reference compound] | blocked | blocked | Repression of Hes1 expression was observed | – | – | – | – | – | –
2 | B1 | – | inhibited as effectively as by the parental murine mAb | – | 0.93% | X | + (Complete blocking) | + (Complete blocking) | + (Complete blocking) | increasingly less effect
3 | B2 | – | inhibited as effectively as by the parental murine mAb | – | 3.49% | X | + (Complete blocking) | + (Complete blocking) | + (Complete blocking) | increasingly less effect
